Measurements: US20060233785A1, “Immunointeractive molecules and uses thereof” (priority 2001, published 2006)
“Also recorded” adds a separate entry of the source. Where two headings read alike, the source gives them in different places.

Key:
basophils = assay: Basophil Activation Test; type: cell-based, human; conditions: for activated basophils / basophil activation above background / basophils activated (above background): 10 μg/ml; for basophil activation above background levels / basophil activation over background: latex allergic subjects; for basophil activation above background levels: 0.1 μg/ml (FIGS. 9B and C); for basophil activation over background: 1 μg/ml; for basophil activation: non-latex allergic control subject N2; for basophil activation above background: one subject (FIG. 9B); for basophils activated (above background): latex allergic subjects (FIGS. 9B, C and D)
Protocol: FIG. 9 is a graphical representation of the basophil Activation Test on a latex allergic donor. Whole blood from a latex allergic, Hev b 6 sensitized subject was incubated with latex allergens. The cells were stained with FITC labelled anti-human IgE polyclonal antibodies and a PE labelled monoclonal anti-human CD63 antibody. Cells were analysed by flow cytometry defining basophils on the basis of scatter (A) and high IgE staining (B). The percentage of activated basophils expressing CD63 was determined (C).
The Basophil Activation Test was performed on whole blood from (A) non-latex allergic subject N2; (B) latex-allergic subject A7; (C) latex-allergic subject A8 and (D) latex-allergic subject A10. Antigens: latex glove extract (GE), hevein peptide (hevein), rHev b 6, mutant rHev b 6 (MU rHev b 6), sulphonated rHev b 6, (sul. rHev b 6), rHev b 5, KLH and house dust mite extract (HDM). All allergens were used at 10 μg/ml except for rHev b 6 and mutant rHev b 6 which were used at 0.1, 1 and 10 μg/ml. The cut-off for positive was set at the level of activated basophils after incubation in stimulation buffer alone (no antigen, horizontal line). A plus symbol (+) indicates antigen to which a subject has either a positive clinical history of allergy and/or a positive reading on an allergen-specific IgE ELISA.
A basophil activation assay based on flow cytometry was used to quantify the activation of basophils after incubation with various allergens. This assay was modified from Paris-Kohler A, Demoly P, Persi L, Lebel B, Bousquet J, Arnoux B. In vitro diagnosis of cypress pollen allergy by using cytofluorimetric analysis of basophils (Basotest). J Allergy Clin Immunol 2000; 105:339-45. Whole blood was collected in 6 ml heparinised vacutainers (Greiner). 100 μl aliquots were preincubated with stimulation buffer (20 mM Hepes, 133 mM NaCl, 5 mM KCl, 7 mM CaCl2, 3.5 mM MgCl2, 1 mg/ml BSA, 20 μl/ml heparin, pH 7.4) containing 2 ng/ml IL-3, for 10 min at 37° C., to increase the sensitivity of the assay. Samples were incubated for 20 min at 37° C. with 100 μl of stimulation buffer alone or stimulation buffer containing either rabbit anti-human IgE (Dako) at 1 in 500 dilution, 2 μM N-fMLP (Sigma, Mo, USA), crude allergen extracts, recombinant latex allergens or Keyhole Limpet Haemocyanin (KLH) (Sigma, Mo, USA). Basophil activation was stopped by incubating at 4° C. for 5 min. Normal goat serum (10 μl) was added to each tube to block non-specific binding of the detection antibody (goat anti-human IgE-FITC) and incubated for 10 min at 4° C. Samples were incubated with goat anti-human IgE-FITC (Caltag, Birmingham, Calif.) at a dilution of 1 in 2.5, and mouse anti-human CD63-R-Phycoerythrin (PE; Caltag, Birmingham, Calif.) at a dilution of 1 in 20, in a 20 μl volume of wash buffer (20 mM HEPES, 133 mM NaCl, 5 mM KCl, 0.27 mM EDTA, pH7.3). RBC were lysed by the addition of 2 ml FACS lysing solution (39 mM NH4Cl, 2.5 mM KHCO3, 0.2 mM EDTA) and incubation for 10 min at room temperature. Cells were centrifuged (250 g, 5 min at 4° C.), resuspended in 3 ml wash buffer, and centrifuged as before. Pellets were resuspended in 200 μl wash buffer, and analysed by flow cytometry (FACScalibur, Becton Dickinson) within 2 h of the experiment. 7AAD (Sigma, Mo, USA) was added to the samples 5 min prior to FACS analysis.

Hev b 6 specific IgE = assay: ELISA for Hev b 6 specific human IgE (Examples 8 and 9); type: binding; conditions: for frequency of IgE reactivity in non-latex allergic subjects: 18 non-latex allergic subjects, compared with 6%; for latex allergic subjects positive for IgE binding by ELISA (positive/total) / latex allergic subjects positive for IgE binding by ELISA: 31 latex allergic subjects; for latex allergic subjects positive for IgE binding by ELISA: cut-off mean + 2 SD of non-latex allergic; for IgE binding by ELISA: sera of latex allergic, Hev b 6 sensitised subjects
Protocol: (§1) FIG. 6 is an image of sulphonation abolishing the IgE reactivity of rHev b 6. rHev b 6 (A) and sulphonated rHev b 6 (B) were resolved by 16% SDS-PAGE under non-reducing conditions. Gels were either stained with Coomassie Brilliant Blue (1) or transferred to nitrocellulose. Strips with transferred protein were incubated with the Hev b 6-specific mAb 1A5.4 and binding detected (2). Strips with transferred protein were also incubated with sera from two latex allergic, Hev b 6 sensitized subjects (3 and 4) and one non-latex-allergic, atopic subject (5). The presence or absence of IgE binding was then detected. […] Plates were coated with rHev b 6 and sulphonated rHev b 6 and the presence or absence of IgE-binding detected. As a positive control the Hev b 6-specific mAb 1A5 was used. NB indicates no binding of IgE was detected.
(§2) FIG. 7 is a graphical representation of the disruption of the first disulphide bond of Hev b 6 markedly decreasing IgE binding to rHev b6. IgE from the sera of 31 latex allergic and 18 non-latex allergic subjects assayed by ELISA for the ability to bind rHev b 6 (no substitution) and mutant rHev b 6 (cysteine to alanine substitution at amino acid 3). Plates were coated with both rHev b 6 and mutant rHev b 6 and incubated with subjects' sera (A) Population ELISA. Individual dots represent individual readings. The thin horizontal lines indicated the cut-off for positive for IgE binding to mutant rHev b 6 and rHev b 6, calculated as the mean of the readings for non-latex allergic subjects for each antigen plus 2 SD. The thick horizontal lines indicate the mean of each group. (B) Direct comparison of IgE and mAb binding to rHev b 6 and mutant rHev b 6. A1 to 11, latex-allergic subjects. N1, non-latex allergic subject. Dotted line indicates the cut-off for positive for IgE binding for mutant rHev b 6. The solid line indicates the cut-off for positive for IgE binding for rHev b 6.
(§3) Patient serum samples were tested for Hev b 6 specific IgE using our standard ELISA protocol (Sutherland et al. 2002, supra) with rabbit anti-human IgE (Dako, Denmark) at 1 in 1000 dilution followed by swine anti-rabbit IgG-HRP conjugate (Promega) at I in 1000 dilution. For the Hev b 6-specific mAb 1A5.4 (IgG1/kappa isotype) binding was detected using sheep anti-mouse Ig-HRP (Silenus) at 1 in 1000 dilution.

[1] = test system: Hev b 6-specific mAb 1A5.4; assay: ELISA for Hev b 6-specific mAb binding to rHev b 6 forms; set-up: species or system mouse
Protocol: as §1, §2, §3

Row | latex allergic subjects positive for IgE binding by ELISA (positive/total) (Hev b 6 specific IgE) | latex allergic subjects positive for IgE binding by ELISA (Hev b 6 specific IgE) | Hev b 6-specific mAb binding by ELISA [1] | Hev b 6-specific mAb binding by ELISA ([1]; listed as rHevb 6) | Molecule | activated basophils (basophils; another patient (FIG. 9C)) | basophil activation above background levels (basophils) | basophil activation over background (basophils) | basophil activation (basophils) | basophil activation above background (basophils) | activated basophils (basophils; third patient) | frequency of IgE reactivity in non-latex allergic subjects (Hev b 6 specific IgE) | IgE binding by ELISA (Hev b 6 specific IgE) | basophils activated (above background) (basophils)
1 | 21/31 | 68% | bound to a similar extent | comparable reactivity | rHev b 6: recombinant Hev b 6 (prohevein) expressed in E. coli from pPROEX-HTa with 6-His tag (protein, left off: small tags and cut ends, recombinant Hev b 6 (prohevein) expressed in E. coli from pPROEX-HTa with 6-His tag) EQCGRQAGGKLCPNNLCCSQWGWCGSTDEYCSPDHNCQSNCKDSGEGVGGGSASNVLATYHLYNSQDHGWDLNAASAYCSTWDANKPYSWRSKYGWTAFCGPVGAHGQSSCGKCLSVTNTGTGAKTTVRIVDQCSNGGLDLDVNVFRQLDTDGKGYERGHITVNYQFVDCGDSFNPLFSVMKSSVIN | 60% | 30-50% | 50-60% | negligible | 60% | 70% | same frequency | bound | –
2 | 2/31 | 6% | comparable reactivity | – | mutant rHev b 6: rHev b 6 with cysteine to alanine substitution at amino acid 3 of the mature protein (protein, left off: small tags and cut ends, rHev b 6 with cysteine to alanine substitution at amino acid 3 of the mature protein) EQAGRQAGGKLCPNNLCCSQWGWCGSTDEYCSPDHNCQSNCKDSGEGVGGGSASNVLATYHLYNSQDHGWDLNAASAYCSTWDANKPYSWRSKYGWTAFCGPVGAHGQSSCGKCLSVTNTGTGAKTTVRIVDQCSNGGLDLDVNVFRQLDTDGKGYERGHITVNYQFVDCGDSFNPLFSVMKSSVIN | 40% | no activation above background levels | 5-10% | negligible | 15% | no activation | same frequency | – | up to 49%
3 | – | – | bound to a similar extent | – | sulphonated rHev b 6: purified rHev b 6 sulphonated in sulphonation buffer to improve solubility (protein, left off: small tags and cut ends) EQCGRQAGGKLCPNNLCCSQWGWCGSTDEYCSPDHNCQSNCKDSGEGVGGGSASNVLATYHLYNSQDHGWDLNAASAYCSTWDANKPYSWRSKYGWTAFCGPVGAHGQSSCGKCLSVTNTGTGAKTTVRIVDQCSNGGLDLDVNVFRQLDTDGKGYERGHITVNYQFVDCGDSFNPLFSVMKSSVIN | – | – | – | – | – | – | – | no detectable binding; also recorded: lack of reactivity | less than 5%
